Results as given in publication doi:10.1101/2023.01.25.525508.

T1: TIA1 full-length (fl TIA1) (Mus musculus, UniProt P52912 1-386)
T1 sequence: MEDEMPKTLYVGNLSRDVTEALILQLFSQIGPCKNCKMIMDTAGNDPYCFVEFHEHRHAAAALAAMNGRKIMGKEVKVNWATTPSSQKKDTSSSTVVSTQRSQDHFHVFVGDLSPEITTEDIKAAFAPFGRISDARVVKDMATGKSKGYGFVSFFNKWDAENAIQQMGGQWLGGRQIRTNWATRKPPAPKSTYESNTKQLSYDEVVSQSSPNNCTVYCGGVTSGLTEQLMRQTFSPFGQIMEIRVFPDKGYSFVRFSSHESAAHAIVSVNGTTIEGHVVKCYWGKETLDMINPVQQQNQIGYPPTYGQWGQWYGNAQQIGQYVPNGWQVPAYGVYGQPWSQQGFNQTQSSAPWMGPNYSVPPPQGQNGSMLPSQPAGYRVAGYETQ


How the values were obtained:
[1] = biological target: T1, TIA1 full-length (fl TIA1); experiment: ITC
[2] = biological target: T1, TIA1 full-length (fl TIA1); experiment: solid-state NMR

Binder	Kd [1] [nM]	binding result [2]
TTTTTACTCC (ssDNA) [TC1]	263 ± 60	
TTTTTACTCCAAAAAAAATTTTTACTCCAAAAAAAATTTTTACTCC (ssDNA) [(TC1-A8)2-TC1]		binds
